Experimental data as given in paper PMC7954794, “Protein context shapes the specificity of SH3 domain-mediated interactions in vivo” (Nature Communications, 2021).

Test system: Abp1 PPIs
Experiment: DHFR-PCA of Abp1 SH3-swapped baits (Fig. 2B-D, S2C, S2F);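 as to Protein-protein interaction distance between Abp1 SH3-swapped baits, to ABP1: Euclidean distance between DHFR-PCA score profiles of the baits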;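 as to Protein-protein interaction distance between Abp1 SH3-swapped baits, to BEM1-2: Euclidean distance between DHFR-PCA score profiles of the baits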;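 as to Protein-protein interaction distance between Abp1 SH3-swapped baits, to BOI1: Euclidean distance between DHFR-PCA score profiles of the baits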;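 as to Protein-protein interaction distance between Abp1 SH3-swapped baits, to BZZ1-1: Euclidean distance between DHFR-PCA score profiles of the baits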
Assay type: cell-based, Saccharomyces cerevisiae
Conditions: for Protein-protein interaction distance between Abp1 SH3-swapped baits, to ABP1: Abp1 bait with swapped SH3, distance to bait with ABP1 SH3; for Protein-protein interaction distance between Abp1 SH3-swapped baits, to ABP1 / Protein-protein interaction distance between Abp1 SH3-swapped baits, to BBC1 / Protein-protein interaction distance between Abp1 SH3-swapped baits, to BEM1-1 / Protein-protein interaction distance between Abp1 SH3-swapped baits, to BEM1-2 / Protein-protein interaction distance between Abp1 SH3-swapped baits, to BOI1 / Protein-protein interaction distance between Abp1 SH3-swapped baits, to BOI2 / Protein-protein interaction distance between Abp1 SH3-swapped baits, to BUD14 / Protein-protein interaction distance between Abp1 SH3-swapped baits, to BZZ1-1 / Protein-protein interaction distance between Abp1 SH3-swapped baits, to BZZ1-2 / Protein-protein interaction distance between Abp1 SH3-swapped baits, to CDC25 / Protein-protein interaction distance between Abp1 SH3-swapped baits, to CTTN / Protein-protein interaction distance between Abp1 SH3-swapped baits, to CYK3 / Protein-protein interaction distance between Abp1 SH3-swapped baits, to DBNL / Protein-protein interaction distance between Abp1 SH3-swapped baits, to FUS1 / Protein-protein interaction distance between Abp1 SH3-swapped baits, to HCLS1 / Protein-protein interaction distance between Abp1 SH3-swapped baits, to HOF1 / Protein-protein interaction distance between Abp1 SH3-swapped baits, to HSE1 / Protein-protein interaction distance between Abp1 SH3-swapped baits, to LSB1 / Protein-protein interaction distance between Abp1 SH3-swapped baits, to LSB3 / Protein-protein interaction distance between Abp1 SH3-swapped baits, to MYO3 / Protein-protein interaction distance between Abp1 SH3-swapped baits, to MYO5 / Protein-protein interaction distance between Abp1 SH3-swapped baits, to NBP2 / Protein-protein interaction distance between Abp1 SH3-swapped baits, to PEX13 / Protein-protein interaction distance between Abp1 SH3-swapped baits, to PIN3 / Protein-protein interaction distance between Abp1 SH3-swapped baits, to RVS167 / Protein-protein interaction distance between Abp1 SH3-swapped baits, to SDC25 / Protein-protein interaction distance between Abp1 SH3-swapped baits, to SHO1 / Protein-protein interaction distance between Abp1 SH3-swapped baits, to SLA1-1 / Protein-protein interaction distance between Abp1 SH3-swapped baits, to SLA1-2 / Protein-protein interaction distance between Abp1 SH3-swapped baits, to SLA1-3 / Protein-protein interaction distance between Abp1 SH3-swapped baits, to YSC84: sheet Fig2C; for Protein-protein interaction distance between Abp1 SH3-swapped baits, to BBC1: distance to Abp1 bait with BBC1 SH3; for Protein-protein interaction distance between Abp1 SH3-swapped baits, to BEM1-1: distance to Abp1 bait with BEM1-1 SH3; for Protein-protein interaction distance between Abp1 SH3-swapped baits, to BEM1-2: distance to Abp1 bait with BEM1-2 SH3; for Protein-protein interaction distance between Abp1 SH3-swapped baits, to BOI1: distance to Abp1 bait with BOI1 SH3; for Protein-protein interaction distance between Abp1 SH3-swapped baits, to BOI2: distance to Abp1 bait with BOI2 SH3; for Protein-protein interaction distance between Abp1 SH3-swapped baits, to BUD14: distance to Abp1 bait with BUD14 SH3; for Protein-protein interaction distance between Abp1 SH3-swapped baits, to BZZ1-1: distance to Abp1 bait with BZZ1-1 SH3; for Protein-protein interaction distance between Abp1 SH3-swapped baits, to BZZ1-2: distance to Abp1 bait with BZZ1-2 SH3; for Protein-protein interaction distance between Abp1 SH3-swapped baits, to CDC25: distance to Abp1 bait with CDC25 SH3; for Protein-protein interaction distance between Abp1 SH3-swapped baits, to CTTN: distance to Abp1 bait with CTTN SH3; for Protein-protein interaction distance between Abp1 SH3-swapped baits, to CYK3: distance to Abp1 bait with CYK3 SH3; for Protein-protein interaction distance between Abp1 SH3-swapped baits, to DBNL: distance to Abp1 bait with DBNL SH3; for Protein-protein interaction distance between Abp1 SH3-swapped baits, to FUS1: distance to Abp1 bait with FUS1 SH3; for Protein-protein interaction distance between Abp1 SH3-swapped baits, to HCLS1: distance to Abp1 bait with HCLS1 SH3; for Protein-protein interaction distance between Abp1 SH3-swapped baits, to HOF1: distance to Abp1 bait with HOF1 SH3; for Protein-protein interaction distance between Abp1 SH3-swapped baits, to HSE1: distance to Abp1 bait with HSE1 SH3; for Protein-protein interaction distance between Abp1 SH3-swapped baits, to LSB1: distance to Abp1 bait with LSB1 SH3; for Protein-protein interaction distance between Abp1 SH3-swapped baits, to LSB3: distance to Abp1 bait with LSB3 SH3; for Protein-protein interaction distance between Abp1 SH3-swapped baits, to MYO3: distance to Abp1 bait with MYO3 SH3; for Protein-protein interaction distance between Abp1 SH3-swapped baits, to MYO5: distance to Abp1 bait with MYO5 SH3; for Protein-protein interaction distance between Abp1 SH3-swapped baits, to NBP2: distance to Abp1 bait with NBP2 SH3; for Protein-protein interaction distance between Abp1 SH3-swapped baits, to PEX13: distance to Abp1 bait with PEX13 SH3; for Protein-protein interaction distance between Abp1 SH3-swapped baits, to PIN3: distance to Abp1 bait with PIN3 SH3; for Protein-protein interaction distance between Abp1 SH3-swapped baits, to RVS167: distance to Abp1 bait with RVS167 SH3; for Protein-protein interaction distance between Abp1 SH3-swapped baits, to SDC25: distance to Abp1 bait with SDC25 SH3; for Protein-protein interaction distance between Abp1 SH3-swapped baits, to SHO1: distance to Abp1 bait with SHO1 SH3; for Protein-protein interaction distance between Abp1 SH3-swapped baits, to SLA1-1: distance to Abp1 bait with SLA1-1 SH3; for Protein-protein interaction distance between Abp1 SH3-swapped baits, to SLA1-2: distance to Abp1 bait with SLA1-2 SH3; for Protein-protein interaction distance between Abp1 SH3-swapped baits, to SLA1-3: distance to Abp1 bait with SLA1-3 SH3; for Protein-protein interaction distance between Abp1 SH3-swapped baits, to YSC84: distance to Abp1 bait with YSC84 SH3
Method in brief: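 Yeast DHFR-PCA in which Abp1 baits, carrying their SH3 replaced by CRISPR–Cas9 with one of 27 yeast SH3s or human CTTN, HCLS1 or DBNL SH3s, were mated against 575 SH3-associated DHFR F[3] preys plus 40 negative controls. Four tests were run per PPI. Diploids were selected twice (48 h, 30 °C), then grown 4 days on PCA selection media.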

[1] = number of PPIs, difference, Abp1 SH3-swapped with the listed SH3, Fig2D,S2F

Molecule | Protein-protein interaction distance between Abp1 SH3-swapped baits, to ABP1 | Protein-protein interaction distance between Abp1 SH3-swapped baits, to BBC1 | Protein-protein interaction distance between Abp1 SH3-swapped baits, to BEM1-1 | Protein-protein interaction distance between Abp1 SH3-swapped baits, to BEM1-2 | Protein-protein interaction distance between Abp1 SH3-swapped baits, to BOI1 | Protein-protein interaction distance between Abp1 SH3-swapped baits, to BOI2 | Protein-protein interaction distance between Abp1 SH3-swapped baits, to BUD14 | Protein-protein interaction distance between Abp1 SH3-swapped baits, to BZZ1-1 | Protein-protein interaction distance between Abp1 SH3-swapped baits, to BZZ1-2 | Protein-protein interaction distance between Abp1 SH3-swapped baits, to CDC25 | Protein-protein interaction distance between Abp1 SH3-swapped baits, to CTTN | Protein-protein interaction distance between Abp1 SH3-swapped baits, to CYK3 | Protein-protein interaction distance between Abp1 SH3-swapped baits, to DBNL | Protein-protein interaction distance between Abp1 SH3-swapped baits, to FUS1 | Protein-protein interaction distance between Abp1 SH3-swapped baits, to HCLS1 | Protein-protein interaction distance between Abp1 SH3-swapped baits, to HOF1 | Protein-protein interaction distance between Abp1 SH3-swapped baits, to HSE1 | Protein-protein interaction distance between Abp1 SH3-swapped baits, to LSB1 | Protein-protein interaction distance between Abp1 SH3-swapped baits, to LSB3 | Protein-protein interaction distance between Abp1 SH3-swapped baits, to MYO3 | further results
PIN3 (protein, UniProt Q06449 2-215, looked up) [PSI+] inducibility protein 3: SASLINRSLTNIRTELDFLKGSNVISNDVYDQINKSLPAKWDPANAPRNASPASLEYVEALYQFDPQQDGDLGLKPGDKVQLLEKLSPEWYKGSCNGRTGIFPANYVKPAFSGSNGPSNLPPPPQYKAQELQQIPTQNSAASSYQQQPFPPPSTNYYQQPQQQPQQAPPPQQQQQQQQHQSSHSHLKSFGSKLGNAAIFGAGASIGSDIVNNIF | 11.43 | 11.25 | 16.56 | 33.69 | 13.58 | 17.21 | 19.7 | 8.164 | 13.53 | 28.09 | 14.08 | 28.76 | 8.074 | 21.08 | 8.844 | 32.38 | 9.808 | 5.513 | 5.817 | 8.374 | Protein-protein interaction distance between Abp1 SH3-swapped baits, to MYO5: 6.67; Protein-protein interaction distance between Abp1 SH3-swapped baits, to NBP2: 18.8; Protein-protein interaction distance between Abp1 SH3-swapped baits, to PEX13: 5.433; Protein-protein interaction distance between Abp1 SH3-swapped baits, to PIN3: 0.00; Protein-protein interaction distance between Abp1 SH3-swapped baits, to RVS167: 5.294; Protein-protein interaction distance between Abp1 SH3-swapped baits, to SDC25: 34.35; Protein-protein interaction distance between Abp1 SH3-swapped baits, to SHO1: 9.004; Protein-protein interaction distance between Abp1 SH3-swapped baits, to SLA1-1: 30.57; Protein-protein interaction distance between Abp1 SH3-swapped baits, to SLA1-2: 21.49; Protein-protein interaction distance between Abp1 SH3-swapped baits, to SLA1-3: 6.016; Protein-protein interaction distance between Abp1 SH3-swapped baits, to YSC84: 5.862; PPIs gained by Abp1 - SH3-dependent PPIs gained by Abp1 [1]: 29; SH3-dependent PPIs - SH3-dependent PPIs gained by Abp1 [1]: 13; SH3-dependent PPIs gained by Abp1 (number of PPIs, Abp1 SH3-swapped with the listed SH3, DHFR-PCA, Fig2D,S2F): 0
SDC25 (protein, UniProt P0CF34 1-1048, looked up) Putative truncated guanine …: MPITSSPDLFYLNDCDVVYWYDLTRLVCHYVNLTERDLLANEREKFLTSLDLLTAQITYVYMLFRNLRLVEDSFKKTLKKLIYTLSRFSINANIWFHSTLFEEREAIASQKDPERRSPLLQSILGTFQKFHFLLRLLHFLSNPNELTILPQLTPRFFKDSFNTISWNNPFLRKRLNQHMSHDLPRQMIKAVAGASGIVAENIDEIPASKQGTSCSSETSHHSPSAPFQRRRRGTIFSNVSGSSDESDTIWSKRKKPYPLNEETLSLVRARKKQLDGKLKQMIKSANEYLSNTANFSKMLNFEMNFKTYEEVSGTIPIIDILENLDLTIFLNLRELGDENRVFDEDVAIDDEDEEFLKHSLSSLSYILSDYFNMKQYFHDVVVKFIIVAQHLTLEDPFVFSPMQNDLPTGYYEPMKPSSLNLDNAKDKKNGSQNTDIQEEEDEYEPDPDSLILFHNLINQDSDFNDLKFFNLAHVFKKSCDDYFDVLKLAIEFVNQLILERENLLNYAARMMKNNITELLLRGEEGYGSYDGGETAEKSDTNAVYADSDTKDNDEWRDSQVKLPRYLQREYDSELIWGSNNRIKGGSKHALISYLTDNEKKDLFFDITFLITFRSIFTTTEFLSYLISQYNLDPPEDLCFEEYNEWVTKKLIPVKCRVVEIMTTFFKQYWFLGYDEPDLATLNLDYFAQVAIKENITGSVELLKEVNQKFKHGNIQEATAPMKTLDQQICQDHYSGTLYSTTESILAVDPVLFATQLTILEHEIYCEITIFDCLQKIWKNKYTKSYGASPGLNEFISFANKLTNFISYSVVKEADKSKRAKLLSHFIFIAEYCRKFNNFSSMTAIISALYSSPIYRLEKTWQAVIPQTRDLLQSLNKLMDPKKNFINYRNELKSLHSAPCVPFFGVYLSDLTFTDSGNPDYLVLEHGLKGVHDEKKYINFNKRSRLVDILQEIIYFKKTHYDFTKDRTVIECISNSLENIPHIEKQYQLSLIIEPKPRKKVVPNSNSNNKSQEKSRDDQTDEGKTSTKKDRFPKFQLHKTKKKAPKVSK | 33.14 | 31.85 | 25.75 | 6.672 | 29.16 | 28.39 | 24.65 | 32.5 | 29.97 | 14.8 | 27.81 | 15.21 | 31.69 | 24.28 | 34.87 | 7.905 | 31.59 | 37.12 | 36.63 | 35.91 | Protein-protein interaction distance between Abp1 SH3-swapped baits, to MYO5: 35.29; Protein-protein interaction distance between Abp1 SH3-swapped baits, to NBP2: 24.44; Protein-protein interaction distance between Abp1 SH3-swapped baits, to PEX13: 35.86; Protein-protein interaction distance between Abp1 SH3-swapped baits, to PIN3: 34.35; Protein-protein interaction distance between Abp1 SH3-swapped baits, to RVS167: 34.37; Protein-protein interaction distance between Abp1 SH3-swapped baits, to SDC25: 0.00; Protein-protein interaction distance between Abp1 SH3-swapped baits, to SHO1: 31.28; Protein-protein interaction distance between Abp1 SH3-swapped baits, to SLA1-1: 14.07; Protein-protein interaction distance between Abp1 SH3-swapped baits, to SLA1-2: 23.99; Protein-protein interaction distance between Abp1 SH3-swapped baits, to SLA1-3: 37.49; Protein-protein interaction distance between Abp1 SH3-swapped baits, to YSC84: 36.86
